Data on one molecule can be found in CN112538115A (BIOSION BIO TECH NANJING CO LTD, dated 2021).

For the test, the target named is T1, 人BCMA-His抗原 (ACRO, Cat#BCA-H522y) (human, UniProt Q02223 1-54).
T1 construct: Bought reagent; Coated on the ELISA plate at 2 ug/ml; also called 人BCMA蛋白; 人BCMA抗原; not shown: His tag
T1 sequence (looked up): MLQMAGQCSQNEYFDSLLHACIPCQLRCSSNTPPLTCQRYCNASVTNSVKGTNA
As to the kind of experiment: indirect ELISA, human BCMA-His coated at 2 ug/ml, detection with HRP goat anti-human Fc gamma. (An ELISA detects its analyte on a solid surface through an enzyme-linked reagent.)

B1: BCMA-VHH-1F7纳米抗体 (抗人BCMA纳米抗体, 含有Fc tag) (Fc fusion)
chain: EVQLVESGGGLVQAGGSLRLSCAASGGTFNNDNVGWFRQAPGKEREFVAVISWRGDGTDYADSVKGRFTISRDYAKKMVYLQMNSLQPKDTAVYYCAVGDGSRWHGAYAYWGQGTRVTVSS
notes: Expressed in Expi293F cells with an Fc tag and purified on Protein A or G; detected with anti-human Fc gamma, about 35 kDa on SDS-PAGE; also called 抗BCMA纳米抗体; not shown: Fc tag
For B1, the binding result is reported as “binds”.
